Ends that are not written are not given here.
B1: I-IIB(398-435)-pGADT7 (other, human, UniProt Q00975 398-435, looked up, not shown: large carriers)
chain: VMLAEEDRNAEEKSPLDVLKRAATKKSRNDLIHAEEGE
notes: range 398-435; Yeast two-hybrid fusion; GAL4 domain placed first by the vector's design
B2: NTB (56-95)-CFP (other)
chain: MALYNPIPVKQNCFTVNRSLFVFSEDNVVRKYAKRITEWP-{ECFP}
modifications: also: ECFP fused C-terminally, linker not given here
notes: not shown: ECFP fused C-terminal to the test molecule
B3: NTB-CFP (other)
chain: MVRFGDELGGRYGGPGGGERARGGGAGGAGGPGPGGLQPGQRVLYKQSIAQRARTMALYNPIPVKQNCFTVNRSLFVFSEDNVVRKYAKRITEWP
notes: also called NTB-CFP peptide; NTB (1-95) in FRET; not shown: ECFP fused C-terminal to the test molecule
B4: lam-pGBKT7 (lamin C attached to the GAL4 binding domain) (other, UniProt P04386 1-147, looked up)
chain: MKLLSSIEQACDICRLKKLKCSKEKPKCAKCLKNNWECRYSPKTKRSPLTRAHLTEVESRLERLEQLFLLIFPREDLDMILKMDSLQDIKALLTGLFVQDNVNKDAVTDRLASVETDMPLTLRQHRISATSSSEESSNKGQRQLTVSSEEVVSREVSGIKAAYEAELGDARKTLDSVAKERARLQLELSKVREEFKELKARNTKKEGDLIAAQARLKDLEALLNSKEAALSTALSEKRTLEGELHDLRGQVAKLEAALGEAKKQLQDEMLRRVDAENRLQTMKEELDFQKNIYSEELRETKRRHETRLVEID
B5: I-IIB(357-482)-pGADT7 (I-II loop of α1B fused to the GAL4 activation domain) (other, human, UniProt Q00975 357-482, looked up, not shown: large carriers)
chain: GEFAKERERVENRRAFLKLRRQQQIERELNGYLEWIFKAEEVMLAEEDRNAEEKSPLDVLKRAATKKSRNDLIHAEEGEDRFADLCAVGSPFARASLKSGKTESSSYFRRKEKMFRFFIRRMVKAQ
notes: range 357-482; Yeast two-hybrid fusion; GAL4 domain placed first by the vector's design; also called I-IIB (pGADT7)
B6: NTB(1-95)-pGBKT7 (NH3 terminus of α1B fused to the GAL4 binding domain) (other)
chain: MKLLSSIEQACDICRLKKLKCSKEKPKCAKCLKNNWECRYSPKTKRSPLTRAHLTEVESRLERLEQLFLLIFPREDLDMILKMDSLQDIKALLTGLFVQDNVNKDAVTDRLASVETDMPLTLRQHRISATSSSEESSNKGQRQLTVSMVRFGDELGGRYGGPGGGERARGGGAGGAGGPGPGGLQPGQRVLYKQSIAQRARTMALYNPIPVKQNCFTVNRSLFVFSEDNVVRKYAKRITEWP
notes: Yeast two-hybrid fusion; GAL4 domain placed first by the vector's design; also called NTB (pGBKT7); full-length NTB
B7: I-IIB(436-482)-pGADT7 (other, human, UniProt Q00975 436-482, looked up, not shown: large carriers)
chain: DRFADLCAVGSPFARASLKSGKTESSSYFRRKEKMFRFFIRRMVKAQ
notes: range 436-482; Yeast two-hybrid fusion; GAL4 domain placed first by the vector's design
B8: pGADT7 (empty vector; the isolated GAL4 activating domain itself) (other, UniProt P04386 768-881, looked up)
chain: ANFNQSGNIADSSLSFTFTNSSNGPNLITTQTNSQALSQPIASSNVHDNFMNNEITASKIDDGNNSKPLSPGWTDQTAYNAFGITTGMFNTTTMDDVYNYLFDDEDTPPNPKKE
notes: also called empty pGADT7
B9: NTB(1-55)-pGBKT7 (other)
chain: MKLLSSIEQACDICRLKKLKCSKEKPKCAKCLKNNWECRYSPKTKRSPLTRAHLTEVESRLERLEQLFLLIFPREDLDMILKMDSLQDIKALLTGLFVQDNVNKDAVTDRLASVETDMPLTLRQHRISATSSSEESSNKGQRQLTVSMVRFGDELGGRYGGPGGGERARGGGAGGAGGPGPGGLQPGQRVLYKQSIAQRART
notes: Yeast two-hybrid fusion; GAL4 domain placed first by the vector's design
B10: I-IIB(357-482)-pGBKT7 (I-II loop of α1B fused to the GAL4 binding domain) (other, UniProt P04386 1-147, looked up)
chain: MKLLSSIEQACDICRLKKLKCSKEKPKCAKCLKNNWECRYSPKTKRSPLTRAHLTEVESRLERLEQLFLLIFPREDLDMILKMDSLQDIKALLTGLFVQDNVNKDAVTDRLASVETDMPLTLRQHRISATSSSEESSNKGQRQLTVSGEFAKERERVENRRAFLKLRRQQQIERELNGYLEWIFKAEEVMLAEEDRNAEEKSPLDVLKRAATKKSRNDLIHAEEGEDRFADLCAVGSPFARASLKSGKTESSSYFRRKEKMFRFFIRRMVKAQ
notes: Yeast two-hybrid fusion; GAL4 domain placed first by the vector's design; also called I-IIB (pGBKT7)
B11: NTB (1-44)-CFP (other)
chain: MVRFGDELGGRYGGPGGGERARGGGAGGAGGPGPGGLQPGQRVL-{ECFP}
modifications: also: ECFP fused C-terminally, linker not given here
notes: as for B2
B12: I-IIB(357-397)-pGADT7 (other, human, UniProt Q00975 357-397, looked up, not shown: large carriers)
chain: GEFAKERERVENRRAFLKLRRQQQIERELNGYLEWIFKAEE
notes: range 357-397; Yeast two-hybrid fusion; GAL4 domain placed first by the vector's design; Equating this segment with the 'N-terminal third' of the text is an inference; also called N-terminal third of the I-IIB loop; NH3-terminal third of the I-IIB loop

Columns and labels:
[1] = molecular target: B4; experiment: yeast two-hybrid control against lamin C, % of colonies surviving on high stringency plates, mean ± SEM
[2] = molecular target: T1, I-IIB-YFP (human, UniProt Q00975 357-482); experiment: FRET two-hybrid in HEK293 cells
T1 construct: range 357-482; also called I-IIB in FRET; not shown: EYFP fused C-terminal to the test molecule

[3] = molecular target: T1, I-IIB-YFP; experiment: FRET two-hybrid in HEK293 cells (three-cube FRET and YFP photobleaching)
[4] = molecular target: T2, Gβ1 fused to the GAL4 activation domain (Gβ1 in pGADT7) (UniProt P62871 1-340); experiment: yeast two-hybrid, background control
T2 construct: Yeast two-hybrid fusion; GAL4 domain placed first by the vector's design; also called Gβ1 (pGADT7); Gβ1/pGADT7

[5] = molecular target: T3, NTC(1-153)-pGBKT7 (NH3 terminus of α1C fused to the GAL4 binding domain) (rabbit, UniProt P04386 1-147; P15381 1-153); experiment: yeast two-hybrid
T3 construct: Yeast two-hybrid fusion; GAL4 domain placed first by the vector's design; also called NTC (pGBKT7)

[6] = molecular target: T2, Gβ1 fused to the GAL4 activation domain …; experiment: yeast two-hybrid
[7] = molecular target: B9; experiment: yeast two-hybrid auto-activation control (empty pGADT7), filter lift β-galactosidase assay, % of colonies turning blue, mean ± SEM
[8] = molecular target: T4, CTC(1525-1670)pGBKT7 (proximal third of the α1C COOH terminus fused to the GAL4 binding domain) (rabbit, UniProt P04386 1-147; P15381 1525-1670); experiment: as above
T4 construct: Yeast two-hybrid fusion; GAL4 domain placed first by the vector's design; also called CTC (pGBKT7)

[9] = molecular target: T3, NTC(1-153)-pGBKT7 (NH3 terminus of α1C …); experiment: as above
[10] = molecular target: T5, NTB(Δ45-55)-pGBKT7 (human, UniProt Q00975 1-95); experiment: as above
T5 construct: Yeast two-hybrid fusion; GAL4 domain placed first by the vector's design; also called NTB peptide lacking residues 45-55

[11] = molecular target: T6, CTA(1763-1928)pGBKT7 (proximal COOH terminus of the P/Q-type α1A subunit fused to the GAL4 binding domain) (UniProt P04386 1-147); experiment: as above
T6 construct: Yeast two-hybrid fusion; GAL4 domain placed first by the vector's design

[12] = molecular target: B6; experiment: as above
[13] = molecular target: T7, NTB(45-95)-pGBKT7 (human, UniProt P04386 1-147 (Saccharomyces cerevisiae entry)); experiment: as above
T7 construct: Yeast two-hybrid fusion; GAL4 domain placed first by the vector's design

[14] = molecular target: T8, NTA(2-100)pGBKT7 (NH3 terminus of the P/Q-type α1A subunit fused to the GAL4 binding domain) (UniProt P04386 1-147); experiment: as above
T8 construct: Yeast two-hybrid fusion; GAL4 domain placed first by the vector's design

[15] = molecular target: B9; experiment: yeast two-hybrid auto-activation control (empty pGADT7), % of colonies surviving on high stringency plates, mean ± SEM
[16] = molecular target: T4, CTC(1525-1670)pGBKT7 (proximal third of …); experiment: as above
[17] = molecular target: T3, NTC(1-153)-pGBKT7 (NH3 terminus of α1C …); experiment: as above
[18] = molecular target: T5, NTB(Δ45-55)-pGBKT7; experiment: as above
[19] = molecular target: T6, CTA(1763-1928)pGBKT7 (proximal COOH …); experiment: as above
[20] = molecular target: B6; experiment: as above
[21] = molecular target: T7, NTB(45-95)-pGBKT7; experiment: as above
[22] = molecular target: T8, NTA(2-100)pGBKT7 (NH3 terminus of the …); experiment: as above
[23] = molecular target: T2, Gβ1 fused to the GAL4 activation domain …; experiment: yeast two-hybrid, Gβ1 in pGADT7 against I-IIB in pGBKT7

T2 sequence (P62871 whole entry, the tested form may be a part): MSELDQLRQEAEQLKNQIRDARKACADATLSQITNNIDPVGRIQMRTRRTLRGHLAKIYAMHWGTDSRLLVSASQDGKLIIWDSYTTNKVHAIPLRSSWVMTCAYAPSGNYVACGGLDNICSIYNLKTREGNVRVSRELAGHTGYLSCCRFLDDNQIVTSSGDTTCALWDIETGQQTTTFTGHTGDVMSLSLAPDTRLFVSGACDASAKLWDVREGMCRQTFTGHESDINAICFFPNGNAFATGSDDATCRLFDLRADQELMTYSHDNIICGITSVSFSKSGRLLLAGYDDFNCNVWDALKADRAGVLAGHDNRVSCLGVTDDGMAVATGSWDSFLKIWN

## B1
[1]
  High Stringency (%): 0.04%

## B2
[2]
  binding result: binds

## B3
[3]
  binding result: binds

## B4
[4]
  binding result: no binding

## B5
[1]
  High Stringency (%): 0.74%
[5]
  binding result: no binding

## B6
[6]
  binding result: binds

## B7
[1]
  High Stringency (%): 0%

## B8
[7]
  Filter Lift Assay (%): 1.56%
[8]
  Filter Lift Assay (%): 0%
[9]
  Filter Lift Assay (%): 0%
[10]
  Filter Lift Assay (%): 2.5%
[11]
  Filter Lift Assay (%): 0%
[12]
  Filter Lift Assay (%): 0.14%
[13]
  Filter Lift Assay (%): 0%
[14]
  Filter Lift Assay (%): 0.82%
[15]
  High Stringency (%): 3.84%
[16]
  High Stringency (%): 0%
[17]
  High Stringency (%): 1%
[18]
  High Stringency (%): 0.56%
[19]
  High Stringency (%): 0.1%
[20]
  High Stringency (%): 0.34%
[21]
  High Stringency (%): 0%
[22]
  High Stringency (%): 0%

## B9
[6]
  binding result: binds

## B10
[23]
  binding result: binds

## B11
[2]
  binding result: no binding

## B12
[1]
  High Stringency (%): 0%

Source: patent US20080279864A1 (Johns Hopkins, published 2008)
